Ends that are not written are not given here. Peptide text beside a SMILES is read from it.
Tests used:
[1] = tested on: tobacco leaves (cv. Xanth); conditions: in vivo
[2] = cited from earlier work; for heat stable (description): description of known elicitors
[3] = description of known elicitors; cited from earlier work
[4] = description of known elicitors; cited from earlier work; remark: listed apart in the source
[5] = Solubility of expressed or synthesized polypeptides; format: physicochemical
Protocol: For proteins expressed in E. coli that were difficult to dissolve in water, total cells were resuspended and sonicated in 8 M urea buffer (0. IM Na-phosphate, 10 mM Tris buffer, pH8.0). The total cell lysate was centrifuged, and supernatants were collected. Ni-agarose was added into the supernatants and mixed gently at room temperature for 30 min. The Ni-agarose resin was washed with buffer (8 M urea, 0.1 M Na-phosphate, 10 mM Tris buffer, pH6.3). The proteins were eluted with elution buffer (8 M urea, 0.1 M EDTA, 0.1 M Na-phosphate, 10 mM Tris buffer, pH 6.3) and dialyzed against buffer (pH 8.5, 10 mM Tris) with stepwise decreased urea. If the proteins still were insoluble in buffer, the solution pH was adjusted to 9 to 11 and sonicated at room temperature for 1 to 5 min.
Chemically synthesized polypeptides were dissolved in 10 mM Tris, pH 6.5 to 11 buffers depending on their solubility.

tobacco = conditions: in vivo; cited from earlier work
TMV = experiment: Percentage of TMV reduction on tobacco leaves; format: in vivo
tomato = experiment: Plant growth enhancement with tomato; format: in vivo; conditions: 10 μg/ml

HrpNEa137180: E. coli expressed peptide, amino acids 137-180 of HrpNEa, His-tag fusion (STSQNDDSTSGTDSTSDSSDPMQQLLKMFSEIMQSLFGDGQDGT; also: His-tag fusion; UniProt Q01099 137-180, looked up, fragment)
HR activity in tobacco [1]: elicit HR activity | HR* (eliciting concentration) [1]: <5 µg/mL

hypersensitive response elicitor polypeptide or protein from Xanthomonas campestris pv. pelargonii: 20 kDa elicitor that includes the amino acid sequence of SEQ. ID. No. 18 (SSQQSPSAGSEQQLDQLLAM; Xanthomonas campestris pv. pelargonii)
heat stable (description) [2]: heat stable | protease sensitive [3]: protease sensitive

SEQ. ID. No. 8: Protein encoded by the dspE gene of Erwinia amylovora, about 198 kDa
pI (description) [4]: 8.98

HrpNEa140176: Synthesized peptide, amino acids 140-176 of HrpNEa, acidic plus helix units (QNDDSTSGTDSTSDSSDPMQQLLKMFSEIMQSLFGDG; UniProt Q01099 140-176, looked up, fragment)
HR activity (eliciting concentration) [1]: + < 5 μg/ml | HR activity in tobacco [1]: full activity of HR | HR* (eliciting concentration) [1]: <5 µg/mL

CSCC[C@H](NC(=O)[C@H](CCSC)NC(=O)[C@H](CO)NC(=O)[C@H](CCSC)NC(=O)[C@H](CCSC)NC(=O)[C@H](CCSC)NC(=O)[C@H](CCSC)NC(=O)[C@H](CCSC)NC(=O)CNC(=O)[C@@H](NC(=O)[C@H](CC(C)C)NC(=O)[C@H](CC(C)C)NC(=O)CNC(=O)[C@H](C)NC(=O)[C@H](CC(C)C)NC(=O)[C@H](CCC(N)=O)NC(=O)[C@H](CC(N)=O)NC(=O)[C@@H](NC(=O)[C@@H](NC(=O)[C@H](CC(=O)O)NC(=O)[C@H](CC(N)=O)NC(=O)[C@H](CCC(N)=O)NC(=O)[C@H](CC(N)=O)NC(=O)CNC(=O)CNC(=O)CNC(=O)[C@H](CC(C)C)NC(=O)CN)[C@@H](C)O)C(C)C)[C@@H](C)O)C(=O)O [HrpNEa4370] (H-GLGGGNQNDTVNQLAGLLTGMMMMMSMM-OH; N-terminus and C-terminus assumed)
Solubility (Source column: Partial soluble) ([5]; Table 4, synthesized peptide, cell wraps over two lines 'Partial' 'soluble'): Partial

(NC): Superharpin building block HrpNEa140-180 with his-tag leader (QNDDSTSGTDSTSDSSDPMQQLLKMFSEIMQSLFGDGQDGT; also: His-tag leader; UniProt Q01099 140-180, looked up, fragment)
Soluble ([5]; Table 7, building blocks with his-tag leader): Yes

B1: amino acids 137 to 204 of HrpNEa: HR active fragment of HrpNEa isolated after digestion with protease (protein, UniProt Q01099 137-204, looked up, fragment)
chain: STSQNDDSTSGTDSTSDSSDPMQQLLKMFSEIMQSLFGDGQDGTQGSSSGGKQPTEGEQNAYKKGVTD
HR elicitation (literature) (tobacco): hypersensitive response active

B2: 98 residue of N-terminal HrpNEa fragment: Smallest bacterially produced HrpNEa peptide with HR-eliciting activity (Laby 1997) (protein, UniProt Q01099 1-98, looked up, fragment)
chain: MSLNTSGLGASTMQISIGGAGGNNGLLGTSRQNAGLGGNSALGLGGGNQNDTVNQLAGLLTGMMMMMSMMGGGGLMGGGLGGGLGNGLGGSGGLGEGL
HR elicitation (literature) (tobacco): displayed HR-eliciting activity

B3: HrpNEch: Harpin protein from E. chrysanthemi, subfamily N (protein, listed as Erwinia chrysanthemi)
chain: MQITIKAHIGGDLGVSGLGAQGLKGLNSAASSLGSSVDKLSSTIDKLTSALTSMMFGGALAQGLGASSKGLGMSNQLGQSFGNGAQGASNLLSVPKSGGDALSKMFDKALDDLLGHDTVTKLTNQSNQLANSMLNASQMTQGNMNAFGSGVNNALSSILGNGLGQSMSGFSQPSLGAGGLQGLSGAGAFNQLGNAIGMGVGQNAALSALSNVSTHVDGNNRHFVDKEDRGMAKEIGQFMDQYPEIFGKPEYQKDGWSSPKTDDKSWAKALSKPDDDGMTGASMDKFRQAMGMIKSAVAGDTGNTNLNLRGAGGASLGIDAAVVGDKIANMSLGKLANA
heat stable (description) [2]: heat stable

B4: HrpNEa: Harpin hypersensitive response elicitor protein from E. amylovora, 403 amino acids (protein, listed as Erwinia amylovora)
chain: MSLNTSGLGASTMQISIGGAGGNNGLLGTSRQNAGLGGNSALGLGGGNQNDTVNQLAGLLTGMMMMMSMMGGGGLMGGGLGGGLGNGLGGSGGLGEGLSNALNDMLGGSLNTLGSKGGNNTTSTTNSPLDQALGINSTSQNDDSTSGTDSTSDSSDPMQQLLKMFSEIMQSLFGDGQDGTQGSSSGGKQPTEGEQNAYKKGVTDALSGLMGNGLSQLLGNGGLGGGQGGNAGTGLDGSSLGGKGLQNLSGPVDYQQLGNAVGTGIGMKAGIQALNDIGTHRHSSTRSFVNKGDRAMAKEIGQFMDQYPEVFGKPQYQKGPGQEVKTDDKSWAKALSKPDDDGMTPASMEQFNKAKGMIKRPMAGDTGNGNLQARGAGGSSLGIDAMMAGDAINNMALGKLGAA
% TMV reduction on tobacco (TMV; 1 μg/ml): 10% | % TMV reduction on tobacco (TMV; 10 μg/ml): 55% | heat stable at 100° C. ([2]; 100° C.): at least 10 minutes | pI (description) [4]: approximately 4.3 | Elicit HR [1]: 1—3 μg/ml | Soluble ([5]; Table 8): Yes | % Plant Growth Enhancement (tomato): 11.68%

B5: HrpWEa: Harpin protein from E. amylovora, subfamily W, 447 amino acids (protein, listed as Erwinia amylovora)
chain: MSILTLNNNTSSSPGLFQSGGDNGLGGHNANSALGQQPIDRQTIEQMAQLLAELLKSLLSPQSGNAATGAGGNDQTTGVGNAGGLNGRKGTAGTTPQSDSQNMLSEMGNNGLDQAITPDGQGGGQIGDNPLLKAMLKLIARMMDGQSDQFGQPGTGNNSASSGTSSSGGSPFNDLSGGKAPSGNSPSGNYSPVSTFSPPSTPTSPTSPLDFPSSPTKAAGGSTPVTDHPDPVGSAGIGAGNSVAFTSAGANQTVLHDTITVKAGQVFDGKGQTFTAGSELGDGGQSENQKPLFILEDGASLKNVTMGDDGADGIHLYGDAKIDNLHVTNVGEDAITVKPNSAGKKSHVEITNSSFEHASDKILQLNADTNLSVDNVKAKDFGTFVRTNGGQQGNWDLNLSHISAEDGKFSFVKSDSEGLNVNTSDISLGDVENHYKVPMSANLKVAE
heat stable (description) [2]: heat stable | protease sensitive [3]: protease sensitive

B6: SEQ. ID. No. 10: Protein encoded by the dspF gene, about 16 kDa (protein, listed as Erwinia amylovora)
chain: MTSSQQRVERFLQYFSAGCKTPIHLKDGVCALYNEQDEEAAVLEVPQHSDSLLLHCRIIEADPQTSITLYSMLLQLNFEMAAMRGCWLALDELHNVRLCFQQSLEHLDEASFSDIVSGFIEHAAEVREYIAQLDESSAA
pI (description) [4]: 4.45

From patent US20020062500A1, “Hypersensitive response eliciting domains and use thereof” (priority 2000, published 2002)
